Measured values: the DeepSol protein solubility set

Test: soluble on expression in E. coli; label from the status in PepcDB or PDB records

| Sequence | soluble on expression in E. coli |
| --- | --- |
| TDKVRQNEKQKRSKALAQTQVNKRLLNEHGLNTPPMMKDEADQFVVSPTNWAGIIDQALAPPRTRKSYQKSMVSISGTKAVIETRSSKN | not soluble |
| TEQTNVLVLCAGGGTSGLLANALNKAAEEYHVPVKAAAGGYGAHMDIMKEYQLIILAPQVASNYEDIKQDTDRLGIKLAKTQGAEYIKLTRDGQAALDFVQQQFEN | not soluble |
| TERFRLTLAQLNPTVGDLAGNAALARRAWDEARAAGSDMLALTEMFVTGYQTQDLVLRRAFVEEAMATIERLAADCAEGPAIGIGGPCLEDGRLMNAYWVLEGGRVSARVFKHHLPNAEVFDEKRVFSSGEVHGPCRVGPLRIGIPICEDSWHPDVCETLAETGAEILLVPNGSPYHREKLDVRVNLMVTRVVETGLPLVYLNMVGGQDDQVFDGASFVLNPHGRLMAQLPAFEEALVHVDFE | not soluble |
| TGKKAILRLSKRAMHLEWKLVKEIIFLGTSGFVMSVTNGFVQIVCNATLQRYGGDIYVGIMTVINSVREIVTMPVTGLTAASQPVIGYNYGAGCYQRVKSA | not soluble |
| TIKRMECFDISHTMGSQTVASCVVFDENGPLKSDYRRFNIEGITGGDDYAGMEQALVKRYDKPLPIEKIPDIIFIDGGKGQLNRALQVFEKLTVAWDKHKPLLIGVAKGAERKAGLETLIIGRLKKEIHLPIDSPALHLIQHIRDESHHHAISGHRKKRQKA | not soluble |
| TKDFEWSSTINAAYQKDEIVELANGKQDDISNAWFIGESINVFYGTASDGLWQESDAAEMAKFNANGHKFEAGMVKPVDQDGNYIIDSNDRIILGNKNPKWVLGWSNTFNYKGLELGIELNGRFGYMVDTGGEGQYGMYNQREISYWTPDNTGADYQKPIYSTAGGDAYSSLLGFKDASFIKIRNISLGYNFNSKALKNIGISSLKLYAQAKNIGNLYSSVDFMDLDLGTTYYNRGFTFGLQVGF | not soluble |
| TKDWNLDLTLNMSHNKNKVTKLVEEGRAQSAMDVVVQGSYADQVLAVGYPMGAFHGYEYAGIIQDQARIDELNAYAKSKGQSYYDGNSLKPGHLEIKDLNGDGIINYNDRVIIGNPDPDLFGGLTANLSYKQFSLFANFGYQIGGLKIYNKTLQNLPGQLTGLIDYGLNDRWSDTNKNAKYPALYIGDGVPRLTDHELFNASFFRLQEVRLTYNLPLNKVIKGQLFVSATNLFTLTSYPGTDPATVNSNSNYGGNYETSTYPGFRSFSAGLKINL | not soluble |
| TPGDRTGTSKCRKAGCVYFGTPENKGFCTLCFIEY | soluble |
| TPLSLTLDHWSEIRSRAHNLSVEIKKGPWRTFCASEWPTFDVGWPPEGTFDLTVIFEVKAIVFQDGPGSHPDQQPYITVWQDLVQNSPPWIK | soluble |
| TPMRSPIIWINGPFGVGKTHTAHTLHERLPGSFVFEPEEMGQALRKLTPGFSGDPQEHPMWIPLMLDALQYASREAAGPLIVPVSISDTARHRRLMSGLKDRGLSVHHFTLIAPLNVVLERLRRDGQPQVNVGTVEDRLNELRGEQFQTHIDTAGLGTQQVAEQIAAQVGLTLAPPPQGALHW | soluble |
| TPVSEKQLAEVVANTVTPLMKAQSVPGMAVAVIYQGKPHYYTFGKADIAANKPVTPQTLFELGSISKTFTGVLGGDAIARGEISLDDPVTRYWPQLTGKQWQGIRMLDLATYTAGGLPLQVPDEVTDNASLLRFYQNWQPQWKPGTTRLYANASIGLFGALAVKPSGMPYEQAMTTRVLKPLKLDHTWINVPKAEEAHYAWGYRDGKAVRAVRVSPGMLDAQAYGVKTNVQDMANWVMANMAPENVADASLKQGIALAQSRYWRIGSMYQGLGWEMLNWPVEANTVVEGSDSKVALAPLPVAEVNPPAPPVKASWVHKTGSTGGFGSYVAFIPEKQIGIVMLANTSYPNPARVEAAYHILEALQ | soluble |
| TQEDVVVTLSHQGYVKYQPLSEYEAQRRGGKGKSAARIKEEDFIDRLLVANTHDHILCFSSRGRVYSMKVYQLPEATRGARGRPIVNLLPLEQDERITAILPVTEFEEGVKVFMATANGTVKKTVLTEFNRLRTAGKVAIKLVDGDELIGVDLTSGEDEVMLFSAEGKVVRFKESSVRAMGCNTTGVRGIRLGEGDKVVSLIVPRGDGAILTATQNGYGKRTAVAEYPTKSRATKGVISIKVTERNGLVVGAVQVDDCDQIMMITDAGTLVRTRVSEISIVGRNTQGVILIRTAEDENVVGLQRVAE | soluble |
| TQQPQQDEMPSPTFLTQVKESLSSYWESAKTAAQNLYEKTYLPAVDEKLRDLYSKSTAAMSTYTGIFTDQVLSVLKGEE | soluble |
| TSGTLYLVPTPIGNLQDMTFRAVATLKEVDFICAEDTRNTGLLLKHFDIATKQISFHEHNAYEKIPDLIDLLISGRSLAQVSDAGMPSISDPGHDLVKAAIDSDIAVVALPGA | not soluble |
| TSPVNWDVTGTFSMNRTYMKKLPYNGRDKNRVQGGLVWDAKSGTYVETGGLAEGERIGGRWGYKYLGVYDTDEEAAKAPVDTKVSGSKMNKKKVAGDAIWADLDNNGVIDDKDITFIGWANPDKKGALINNLSYKNFSLRLVVDFALGHSIANIWRCRANANARNAIITTTDVTNGNIWWQTGDAATAKYPRYDVASDWDNGYRNHMRTIAYAGMNSNGNADNTAYYSKGDYLCFREVSLGYELPRSVCSKMKVKGVSLNAGVTNIGYITAFDGLNPEQYDGQETGEYFLPIQFNFGVRLTF | not soluble |
| TVVVSEAGASVYSASEFAANEFPNLDVSLRGAVSIARRLQDPLAELVKIEPKAIGVGQYQHDVNQTQLARKLDAVVEDCVNAVGVDLNTASAPLLARVAGMTKTLAQNIVEYRDENGRFESRSELKKVPRLGPKAFEQCAGFMRIANGKNPLDASGVHPEAYPVVEKILQATAQSIQDLMSNAGVVRQLDAKQFI | not soluble |
| VANKIKLGHVHLSGCTGCLVSTADNNLGFIKILDNYADLVYSLTLADVRHVPEMDVALVEGSVCIQDHESVEEIRETREKAKIVVALGSCACYGNITRFSRGGQHNQPQHESFLPIGDLIDVDVYIPGCPPSPELIRNVAVMAYMLLEGDEDQKALAGRYLKPLMD | not soluble |
| VDNVFIVGHRKLDMDALGSAVGMQFFAGNIIENSFAVYNPDEMSPDIERAIERLQADGKTRLISVSQAMGLVTPRSLLVMVDHSKISLTLSKEFYEQFQNVIVVDHHRRDDDFPDNAILTFIESGASSAAELVTELIQFQNAKKCLNKIQASVLMAGIMLDTKNFSTRVTSRTFDVASYLRSKGSDSVEIQNISATD | not soluble |
| VEGLNPLIPQKSNRGVIDVAIFREYVSGGKDRAAEDRRRHRELVEESIKKNIGNIIAEESIIGQSKDKKIKIPIRSIKEYQFVYGKNGPSVGSGDGTEKRGEKIGEEKTANGGQGVGQAGNQEGEEIYETEITIEELINYLFDDLNLPDIDKKRIAEQESIRSYKNLGYQRKGIPPRLAKKRSVIEKIKRKQAYLRNSRELGDLDESAEEDIAAQETLDGVRKRFPFSEDDLRYRRVREDRKKDFNAVVICIMDVSGSMDQTKKYLARSFYFLLYQFIRLKYANVDVVFIAHTTTAKEVSEDEFFHRGESGGTYISSGYEKALEIIEQRYNPNSWNIYAFHCSDGDNWSEDNKKAVELGLKLCDVCNLFGYGEIVPGYYSTGSTIKDEFQKSIKRDNFSVITITNKDDVLPGLKKLLEKEGE | soluble |
| VICHGDFAPYNVALNGNQTVGIFDFDTAHPAPRLWDIAYAVYCWAPFKTNEYDALGDLNSQSARAKLFCDSYGLSNAEREKL | not soluble |
| VKNFEWKTIFNWSKNNSMVESLPEGIDKIQIGSGVYNVKSYAEVGKPYGAIYAKTFKRDAEGYILCQLDGSPKEGQDYEYLGCVQADWRGGWNNVFRLGNFSFSVMFDFQKGGKFFSQTSIQSSVDGQSVKSLEGRDADFFSRKILGESDEERYGFMRPQNANTPTANGQIYPDWGRPKGVVLPNCRYDEDVEGLAGQQVLGYCTPERYWMHYTSRDISRFIYDASYVKLREITVSYDLPKKWLRKTPFQTFRVAAVGRNIATLFANTPHGLDPQATSTTGNAQGFERGFNLPSATYGFDIKVSF | not soluble |
| VKVSKECEKIDIILTDGVIILGKIKGQIDSKSLHEHEKKPFSQSGTMNPETSRLLVNLSRPKKEVLDPFVGTGSILIEARWLNYECIGSDLDKAMLQKTKINLNYFNYYCSLLFSSATNLPFRQITSIATDPPYGRSTKNKGAELTQLYEEFFSSASETLTKGGFLVFATDSRFNFIDKLKENSFIIKGLHYLYSHKSLTRAIYVVQKK | not soluble |
| VLNHSIEVALLAGYMASELGLNADKARRGGLLHDIGKAVDQELEGSHTTIGAELARRYGEKEDIINMILSHHGEEEPMTP | not soluble |
| VLPHARKVARETGIPEHFMIAQAALETGWGRHQIRRADNQPSFNLFGIKASGNWRGGVVETVTTEYVDGKPQKLREKFRTYDSYEDAFRDYAKLLQNNPRYAAVLKSRSATAFAWGLQQAGYATDPSYAEKLLKIINSDALSI | not soluble |
| VPQQSATKLVQQWQPLLQRWGELAGVEIKFATARDIPTFEARLMAGEYDIAYMNPYHFTLVNQTPGYTALARAKNKRITGIIVARKGQSVTLDDLQEETIAFPAPRAFAASIITQSELEQKGIKFTPKYVGSHD | not soluble |
| VPSPDDTEVTVARLTSMSSAEEPLTAGRDGLLSLLRNGQLPSRGAKAPQRERYQRIVAAAMELASEGGYDAVQMRAIADRAGVALGTVYRYFPSKNHMLVMGLLMVFEGMRSRFEDVAIPGDTPSERILFVLRKNTEVLEKDRPRYEALVRAFMFADASASAELDAFGALMTEMFAKTIGVEQISDDQLNAIRVIGDVWMSSLVSWVAGRISVDEVMAHLGLAVRLVFRRLGG | not soluble |
| VPWEDVFKSFDPNPLAAGTIAQVHRATLETGDRVVVKVQRPTARADIEQDLALFEMFAEKVGKRPALNQVINMEDVFKHLSTSLHRELDFRQEANNIERMRTVLADYDRLAVPSIHWDLS | not soluble |
| VQLLEQSGAELVKPGASVKLSCTASGFNIEDSYIHWVKQRPEQGLEWIGRIDPEDGETKYAPKFQGKATITADTSSNTAYLHLRRLTSEDTAIYYCGRGAYYIKEDFWGQGTTLTVSSASTKGPSVFPLAPSSKAGGTAALGCLVKDYFPEPVTVSWNSGALTSGVHTFPAVLQSSGLYSLSSVVTVPSSSLGTQTYICNVNHKPSNTKVDKKVEPA | soluble |
